Source: patent US20250066503A1, “CELL INJURY INDUCING THERAPEUTIC DRUG FOR USE IN CANCER THERAPY” (CHUGAI SEIYAKU KABUSHIKI KAISHA, priority 2016, published 2025)

B1: H0610-G1dh/none-Hi-Kn010G3/L0237-k0 (antibody, V domains shown)
VH: QVQLVQSGAEVKKPGASVKVSCKASGYTFTDYEMHWIRQPPGQGLEWIGAIDGKTPDTAYSQKFKGRVTLTADKSTSTAYMELSSLTSEDTAVYYCTRFYSYTYWGQGTLVTVSS
VL: DIVMTQSPLSLPVTPGEPASISCRSSQEPVHSNRNTYIHWYQQKPGQAPRLLIYKVSNRFSGVPDRFSGSGSGTDFTLKISRVEAEDVGVYYCYQGTQVPYTFGQGTKLEIK
notes: one-arm
B2: H0610-G1dh/none-Hi-Kn010G3/L0266-k0 (antibody, V domains shown)
VH: QVQLVQSGAEVKKPGASVKVSCKASGYTFTDYEMHWIRQPPGQGLEWIGAIDGKTPDTAYSQKFKGRVTLTADKSTSTAYMELSSLTSEDTAVYYCTRFYSYTYWGQGTLVTVSS
VL: DIVMTQSPLSLPVTPGEPASISCRSSQPPVHSNRNTYLHWYQQKPGQAPRLLIYKVSNRFSGVPDRFSGSGSGTDFTLKISRVEAEDVGVYYCVQGTQVPYTFGQGTKLEIK
notes: one-arm
B3: H0610-G1dh/none-Hi-Kn010G3/L0240-k0 (antibody, V domains shown)
VH: QVQLVQSGAEVKKPGASVKVSCKASGYTFTDYEMHWIRQPPGQGLEWIGAIDGKTPDTAYSQKFKGRVTLTADKSTSTAYMELSSLTSEDTAVYYCTRFYSYTYWGQGTLVTVSS
VL: DIVMTQSPLSLPVTPGEPASISCRSSESPVHSNRNTYLHWYQQKPGQAPRLLIYKVSNRFSGVPDRFSGSGSGTDFTLKISRVEAEDVGVYYCYQGTQVPYTFGQGTKLEIK
notes: one-arm
B4: H0610-G1dh/none-Hi-Kn010G3/L0261-k0 (antibody, V domains shown)
VH: QVQLVQSGAEVKKPGASVKVSCKASGYTFTDYEMHWIRQPPGQGLEWIGAIDGKTPDTAYSQKFKGRVTLTADKSTSTAYMELSSLTSEDTAVYYCTRFYSYTYWGQGTLVTVSS
VL: DIVMTQSPLSLPVTPGEPASISCRSSQSPVHSNRNTYIQWYQQKPGQAPRLLIYKVSNRFSGVPDRFSGSGSGTDFTLKISRVEAEDVGVYYCTQGTQVPYTFGQGTKLEIK
notes: one-arm
B5: H0610-G1dh/none-Hi-Kn010G3/TR01L003-k0 (antibody, V domains shown)
VH: QVQLVQSGAEVKKPGASVKVSCKASGYTFTDYEMHWIRQPPGQGLEWIGAIDGKTPDTAYSQKFKGRVTLTADKSTSTAYMELSSLTSEDTAVYYCTRFYSYTYWGQGTLVTVSS
VL: DIVMTQSPLSLPVTPGEPASISCRSSQSLVHSNRNTYLHWYQQKPGQAPRLLIYKVSNRFSGVPDRFSGSGSGTDFTLKISRVEAEDVGVYYCGQGTQVPYTFGQGTKVEIE
notes: one-arm
B6: H0610-G1dh/none-Hi-Kn010G3/L0239-k0 (antibody, V domains shown)
VH: QVQLVQSGAEVKKPGASVKVSCKASGYTFTDYEMHWIRQPPGQGLEWIGAIDGKTPDTAYSQKFKGRVTLTADKSTSTAYMELSSLTSEDTAVYYCTRFYSYTYWGQGTLVTVSS
VL: DIVMTQSPLSLPVTPGEPASISCRSSESPVHSNRNTYLHWYQQKPGQAPRLLIYKVSNRFRGVPDRFSGSGSGTDFTLKISRVEAEDVGVYYCGQGTQVPYTFGQGTKLEIK
notes: one-arm
B7: H0610-G1dh/none-Hi-Kn010G3/L0268-k0 (antibody, V domains shown)
VH: QVQLVQSGAEVKKPGASVKVSCKASGYTFTDYEMHWIRQPPGQGLEWIGAIDGKTPDTAYSQKFKGRVTLTADKSTSTAYMELSSLTSEDTAVYYCTRFYSYTYWGQGTLVTVSS
VL: DIVMTQSPLSLPVTPGEPASISCRSSQSPVHSNRNTYIQWYQQKPGQAPRLLIYKVSNRFSGVPDRFSGSGSGTDFTLKISRVEAEDVGVYYCVQGTQVPYTFGQGTKLEIK
notes: one-arm
B8: H0610-G1dh/none-Hi-Kn010G3/L0248-k0 (antibody, V domains shown)
VH: QVQLVQSGAEVKKPGASVKVSCKASGYTFTDYEMHWIRQPPGQGLEWIGAIDGKTPDTAYSQKFKGRVTLTADKSTSTAYMELSSLTSEDTAVYYCTRFYSYTYWGQGTLVTVSS
VL: DIVMTQSPLSLPVTPGEPASISCRPSQSPVHSNRNTYIQWYQQKPGQAPRLLIYKVSNRFSGVPDRFSGSGSGTDFTLKISRVEAEDVGVYYCYQGTQVPYTFGQGTKLEIK
notes: one-arm
B9: H0610-G1dh/none-Hi-Kn010G3/L0258-k0 (antibody, V domains shown)
VH: QVQLVQSGAEVKKPGASVKVSCKASGYTFTDYEMHWIRQPPGQGLEWIGAIDGKTPDTAYSQKFKGRVTLTADKSTSTAYMELSSLTSEDTAVYYCTRFYSYTYWGQGTLVTVSS
VL: DIVMTQSPLSLPVTPGEPASISCRSSQPPVHSNRNTYLHWYQQKPGQAPRLLIYKVSNRFSGVPDRFSGSGSGTDFTLKISRVEAEDVGVYYCTQGTQVPYTFGQGTKLEIK
notes: one-arm
B10: H0610-G1dh/none-Hi-Kn010G3/L0265-k0 (antibody, V domains shown)
VH: QVQLVQSGAEVKKPGASVKVSCKASGYTFTDYEMHWIRQPPGQGLEWIGAIDGKTPDTAYSQKFKGRVTLTADKSTSTAYMELSSLTSEDTAVYYCTRFYSYTYWGQGTLVTVSS
VL: DIVMTQSPLSLPVTPGEPASISCRSSQSPVHSNRNTYIQWYQQKPGQAPRLLIYKVSNRFSGVPDRFSGSGSGTDFTLKISRVEAEDVGVYYCAQGTQVPYTFGQGTKLEIK
notes: one-arm
B11: H0610-G1dh/none-Hi-Kn010G3/L0262-k0 (antibody, V domains shown)
VH: QVQLVQSGAEVKKPGASVKVSCKASGYTFTDYEMHWIRQPPGQGLEWIGAIDGKTPDTAYSQKFKGRVTLTADKSTSTAYMELSSLTSEDTAVYYCTRFYSYTYWGQGTLVTVSS
VL: DIVMTQSPLSLPVTPGEPASISCRSSQPPVHSNRNTYLHWYQQKPGQAPRLLIYKVSNRFSGVPDRFSGSGSGTDFTLKISRVEAEDVGVYYCAQGTQVPYTFGQGTKLEIK
notes: one-arm
B12: H0610-G1dh/none-Hi-Kn010G3/L0267-k0 (antibody, V domains shown)
VH: QVQLVQSGAEVKKPGASVKVSCKASGYTFTDYEMHWIRQPPGQGLEWIGAIDGKTPDTAYSQKFKGRVTLTADKSTSTAYMELSSLTSEDTAVYYCTRFYSYTYWGQGTLVTVSS
VL: DIVMTQSPLSLPVTPGEPASISCRPSQSPVHSNRNTYLHWYQQKPGQAPRLLIYKVSNRFSGVPDRFSGSGSGTDFTLKISRVEAEDVGVYYCVQGTQVPYTFGQGTKLEIK
notes: one-arm
B13: H0610-G1dh/none-Hi-Kn010G3/L0264-k0 (antibody, V domains shown)
VH: QVQLVQSGAEVKKPGASVKVSCKASGYTFTDYEMHWIRQPPGQGLEWIGAIDGKTPDTAYSQKFKGRVTLTADKSTSTAYMELSSLTSEDTAVYYCTRFYSYTYWGQGTLVTVSS
VL: DIVMTQSPLSLPVTPGEPASISCRPSQSPVHSNRNTYLHWYQQKPGQAPRLLIYKVSNRFSGVPDRFSGSGSGTDFTLKISRVEAEDVGVYYCAQGTQVPYTFGQGTKLEIK
notes: one-arm
B14: H0610-G1dh/none-Hi-Kn010G3/TR01L005-k0 (antibody, V domains shown)
VH: QVQLVQSGAEVKKPGASVKVSCKASGYTFTDYEMHWIRQPPGQGLEWIGAIDGKTPDTAYSQKFKGRVTLTADKSTSTAYMELSSLTSEDTAVYYCTRFYSYTYWGQGTLVTVSS
VL: DIVMTQSPLSLPVTPGEPASISCRSSQSLVHSNRNTYLHWYLQKPGQSPQLLIYKVSNRFSGVPDRFSGSGSGTDFTLKISRVEAEDVGVYYCGQGTQVPYTFGQGTKVEIE
notes: one-arm
B15: H0610-G1dh/none-Hi-Kn010G3/L0259-k0 (antibody, V domains shown)
VH: QVQLVQSGAEVKKPGASVKVSCKASGYTFTDYEMHWIRQPPGQGLEWIGAIDGKTPDTAYSQKFKGRVTLTADKSTSTAYMELSSLTSEDTAVYYCTRFYSYTYWGQGTLVTVSS
VL: DIVMTQSPLSLPVTPGEPASISCRSSQSPVHSNRNTYIHWYQQKPGQAPRLLIYKVSNRFSGVPDRFSGSGSGTDFTLKISRVEAEDVGVYYCTQGTQVPYTFGQGTKLEIK
notes: one-arm
B16: H0610-G1dh/none-Hi-Kn010G3/L0269-k0 (antibody, V domains shown)
VH: QVQLVQSGAEVKKPGASVKVSCKASGYTFTDYEMHWIRQPPGQGLEWIGAIDGKTPDTAYSQKFKGRVTLTADKSTSTAYMELSSLTSEDTAVYYCTRFYSYTYWGQGTLVTVSS
VL: DIVMTQSPLSLPVTPGEPASISCRSSQSPVHSNRNTYIQWYQQKPGQAPRLLIYKVSNRFSGVPDRFSGSGSGTDFTLKISRVEAEDVGVYYCGQGTQVPYTFGQGTKLEIK
notes: one-arm
B17: H0610-G1dh/none-Hi-Kn010G3/L0263-k0 (antibody, V domains shown)
VH: QVQLVQSGAEVKKPGASVKVSCKASGYTFTDYEMHWIRQPPGQGLEWIGAIDGKTPDTAYSQKFKGRVTLTADKSTSTAYMELSSLTSEDTAVYYCTRFYSYTYWGQGTLVTVSS
VL: DIVMTQSPLSLPVTPGEPASISCRSSQSPVHSNRNTYIHWYQQKPGQAPRLLIYKVSNRFSGVPDRFSGSGSGTDFTLKISRVEAEDVGVYYCAQGTQVPYTFGQGTKLEIK
notes: one-arm
B18: H0610-G1dh/none-Hi-Kn010G3/L0238-k0 (antibody, V domains shown)
VH: QVQLVQSGAEVKKPGASVKVSCKASGYTFTDYEMHWIRQPPGQGLEWIGAIDGKTPDTAYSQKFKGRVTLTADKSTSTAYMELSSLTSEDTAVYYCTRFYSYTYWGQGTLVTVSS
VL: DIVMTQSPLSLPVTPGEPASISCRSSEPPVHSNRNTYLHWYQQKPGQAPRLLIYKVSNRFSGVPDRFSGSGSGTDFTLKISRVEAEDVGVYYCYQGTQVPYTFGQGTKLEIK
notes: one-arm
B19: H0610-G1dh/none-Hi-Kn010G3/L0242-k0 (antibody, V domains shown)
VH: QVQLVQSGAEVKKPGASVKVSCKASGYTFTDYEMHWIRQPPGQGLEWIGAIDGKTPDTAYSQKFKGRVTLTADKSTSTAYMELSSLTSEDTAVYYCTRFYSYTYWGQGTLVTVSS
VL: DIVMTQSPLSLPVTPGEPASISCRSSESPVHSNRNTYIHWYQQKPGQAPRLLIYKVSNRFSGVPDRFSGSGSGTDFTLKISRVEAEDVGVYYCYQGTQVPYTFGQGTKLEIK
notes: one-arm
B20: H0610-G1dh/none-Hi-Kn010G3/L0243-k0 (antibody, V domains shown)
VH: QVQLVQSGAEVKKPGASVKVSCKASGYTFTDYEMHWIRQPPGQGLEWIGAIDGKTPDTAYSQKFKGRVTLTADKSTSTAYMELSSLTSEDTAVYYCTRFYSYTYWGQGTLVTVSS
VL: DIVMTQSPLSLPVTPGEPASISCRSSEPPVHSNRNTYLHWYQQKPGQAPRLLIYKVSNRFRGVPDRFSGSGSGTDFTLKISRVEAEDVGVYYCGQGTQVPYTFGQGTKLEIK
notes: one-arm
B21: H0610-G1dh/none-Hi-Kn010G3/L0246-k0 (antibody, V domains shown)
VH: QVQLVQSGAEVKKPGASVKVSCKASGYTFTDYEMHWIRQPPGQGLEWIGAIDGKTPDTAYSQKFKGRVTLTADKSTSTAYMELSSLTSEDTAVYYCTRFYSYTYWGQGTLVTVSS
VL: DIVMTQSPLSLPVTPGEPASISCRSSQSPVHSNRNTYIQWYQQKPGQAPRLLIYKVSNRFSGVPDRFSGSGSGTDFTLKISRVEAEDVGVYYCSQGTQVPYTFGQGTKLEIK
notes: one-arm
B22: H0610-G1dh/none-Hi-Kn010G3/L0249-k0 (antibody, V domains shown)
VH: QVQLVQSGAEVKKPGASVKVSCKASGYTFTDYEMHWIRQPPGQGLEWIGAIDGKTPDTAYSQKFKGRVTLTADKSTSTAYMELSSLTSEDTAVYYCTRFYSYTYWGQGTLVTVSS
VL: DIVMTQSPLSLPVTPGEPASISCRPSQSPVHSNRNTYIQWYQQKPGQAPRLLIYKVSNRFSGVPDRFSGSGSGTDFTLKISRVEAEDVGVYYCSQGTQVPYTFGQGTKLEIK
notes: one-arm

biological target: T1, human GPC3 (human, UniProt P51654 25-563); assay: SPR
T1 construct: range 25-563; soluble analyte; also called soluble human GPC3; glypican 3
T1 sequence (P51654 25-563 limits assumed): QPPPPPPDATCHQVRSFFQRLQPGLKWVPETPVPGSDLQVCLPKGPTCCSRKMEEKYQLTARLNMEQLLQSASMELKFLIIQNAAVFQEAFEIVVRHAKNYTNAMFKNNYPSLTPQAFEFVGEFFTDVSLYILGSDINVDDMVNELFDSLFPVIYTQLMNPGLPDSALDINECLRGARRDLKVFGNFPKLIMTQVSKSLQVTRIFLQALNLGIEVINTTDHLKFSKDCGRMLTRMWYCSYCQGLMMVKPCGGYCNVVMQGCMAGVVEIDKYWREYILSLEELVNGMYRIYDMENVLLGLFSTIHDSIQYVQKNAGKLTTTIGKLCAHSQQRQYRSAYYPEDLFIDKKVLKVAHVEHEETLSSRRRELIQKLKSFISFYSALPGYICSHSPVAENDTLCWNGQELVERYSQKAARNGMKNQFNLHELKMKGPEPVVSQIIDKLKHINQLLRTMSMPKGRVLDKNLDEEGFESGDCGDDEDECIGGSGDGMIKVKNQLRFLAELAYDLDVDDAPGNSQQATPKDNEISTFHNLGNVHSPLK

Point of comparison: B5, Kd 5.08 nM. Against it:
- B1 — 3.9-fold lower, 1.31 nM
- B2 — 24-fold lower, 0.213 nM
- B3 — 6-fold lower, 0.848 nM
- B4 — 470-fold lower, 0.0107 nM
- B6 — 5.8-fold lower, 0.874 nM
- B7 — 300-fold lower, 0.0169 nM
- B8 — 92-fold lower, 0.0555 nM
- B9 — 14000-fold lower, 0.000352 nM
- B10 — 580-fold lower, 0.0087 nM
- B11 — 24-fold lower, 0.211 nM
- B12 — 28-fold lower, 0.179 nM
- B13 — 23-fold lower, 0.219 nM
- B14 — within 1.5-fold, 5.37 nM
- B15 — 15-fold lower, 0.334 nM
- B16 — 11-fold lower, 0.459 nM
- B17 — 9-fold lower, 0.564 nM
- B18 — 8-fold lower, 0.637 nM
- B19 — 4.3-fold lower, 1.19 nM
- B20 — 7.8-fold lower, 0.649 nM
- B21 — 4200-fold lower, 0.00121 nM
- B22 — 740-fold lower, 0.00686 nM
